According to patent US20260274958A1:

Target: VEGF-Fc (in house made by ImmuneOnco)
Sequence (chain, as listed by the source limits assumed): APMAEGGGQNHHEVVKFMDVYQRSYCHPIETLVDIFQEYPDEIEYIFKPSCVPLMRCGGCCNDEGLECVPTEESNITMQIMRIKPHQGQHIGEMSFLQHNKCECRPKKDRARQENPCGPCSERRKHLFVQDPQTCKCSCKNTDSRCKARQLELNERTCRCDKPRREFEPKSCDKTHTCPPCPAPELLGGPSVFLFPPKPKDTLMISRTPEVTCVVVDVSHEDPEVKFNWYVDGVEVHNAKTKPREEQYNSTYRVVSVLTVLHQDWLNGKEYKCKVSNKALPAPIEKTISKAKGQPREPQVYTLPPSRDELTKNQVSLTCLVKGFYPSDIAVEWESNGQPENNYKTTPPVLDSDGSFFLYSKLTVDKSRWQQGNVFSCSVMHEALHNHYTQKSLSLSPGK

VEGFR1D2-Fc (Fc fusion)
IC50 of inhibition of VEGF-Fc induced CD69 expression (MFI) on Jurkat-CVR cells: 2.38 nM
